The labels stand for the following.
B1: MIA2 (parent)
chain: SVIEPVQESSFRSRKIAVEDENDL
B2: ARL6IP1 (parent)
chain: YLDPSVLSGVSCFVMFLCLADYLV
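Further: lentivirally expressed fusions sorted by FACS into six bins by GFP to DsRed ratio, PSI derived from sequencing read proportions per bin multiplied by bin number.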

One series covers variants of B1. As to the kind of experiment: protein stability index of a GFP-peptide fusion (GPS, HEK-293T) (PSI 1-6); higher = more stable. The following applies: c terminus: a fixed tail appended.
Take SVIEPGQESSFRSRKIAVEDENDL: the protein stability index amounted to 5.75.

As to SSIEPVQESSFRSRKIAVEDENDL, the protein stability index came out at 5.32.

Take SPIEPVQESSFRSRKIAVEDENDL: the protein stability index turned out to be 5.15.

As for SGIEPVQESSFRSRKIAVEDENDL, the protein stability index was found to be 5.67.

As to SQIEPVQESSFRSRKIAVEDENDL, the protein stability index came out at 5.82.

For the variant SKIEPVQESSFRSRKIAVEDENDL, the protein stability index is 5.38.

For SHIEPVQESSFRSRKIAVEDENDL, the protein stability index turned out to be 5.51.

Consider SYIEPVQESSFRSRKIAVEDENDL, for which the protein stability index was 5.26.

As for SMIEPVQESSFRSRKIAVEDENDL, the protein stability index was found to be 5.22.

In the case of SDIEPVQESSFRSRKIAVEDENDL, the protein stability index worked out at 5.83.

For SLIEPVQESSFRSRKIAVEDENDL, the protein stability index stood at 5.24.

Take SNIEPVQESSFRSRKIAVEDENDL: the protein stability index is 5.87.

As for SRIEPVQESSFRSRKIAVEDENDL, the protein stability index was 5.5.

Take STIEPVQESSFRSRKIAVEDENDL: the protein stability index was found to be 5.31.

As for SWIEPVQESSFRSRKIAVEDENDL, the protein stability index was 5.14.

Take SIIEPVQESSFRSRKIAVEDENDL: the protein stability index amounted to 4.69.

In the case of SFIEPVQESSFRSRKIAVEDENDL, the protein stability index is 4.42.

In the case of SEIEPVQESSFRSRKIAVEDENDL, the protein stability index was found to be 5.22.

SCIEPVQESSFRSRKIAVEDENDL: the protein stability index is 5.76.

As for SAIEPVQESSFRSRKIAVEDENDL, the protein stability index came out at 5.31.

As to RVIEPVQESSFRSRKIAVEDENDL, the protein stability index is 5.32.

As to AVIEPVQESSFRSRKIAVEDENDL, the protein stability index was determined as 5.01.

For the variant DVIEPVQESSFRSRKIAVEDENDL, the protein stability index is 5.68.

Take PVIEPVQESSFRSRKIAVEDENDL: the protein stability index stood at 5.59.

On to LVIEPVQESSFRSRKIAVEDENDL, for which the protein stability index came out at 4.33.

On to WVIEPVQESSFRSRKIAVEDENDL, for which the protein stability index is 4.46.

Regarding HVIEPVQESSFRSRKIAVEDENDL, the protein stability index was 5.52.

With VVIEPVQESSFRSRKIAVEDENDL, the protein stability index was 4.33.

Regarding MVIEPVQESSFRSRKIAVEDENDL, the protein stability index stood at 4.71.

Take NVIEPVQESSFRSRKIAVEDENDL: the protein stability index is 5.69.

Regarding CVIEPVQESSFRSRKIAVEDENDL, the protein stability index was 5.53.

In the case of EVIEPVQESSFRSRKIAVEDENDL, the protein stability index was 5.28.

Take QVIEPVQESSFRSRKIAVEDENDL: the protein stability index turned out to be 5.39.

On to TVIEPVQESSFRSRKIAVEDENDL, for which the protein stability index is 5.45.

As for YVIEPVQESSFRSRKIAVEDENDL, the protein stability index amounted to 3.12.

In the case of FVIEPVQESSFRSRKIAVEDENDL, the protein stability index was 2.93.

For KVIEPVQESSFRSRKIAVEDENDL, the protein stability index came to 5.13.

Take GVIEPVQESSFRSRKIAVEDENDL: the protein stability index was found to be 5.17.

Turning to IVIEPVQESSFRSRKIAVEDENDL, the protein stability index is 3.96.

A further series covers variants of B2. The series is described as above. To be noted: c terminus: a fixed tail appended.
Consider YLDPSVLSGVSCFVMFLCLADSLV, for which the protein stability index was 3.94.

YLDPSVLSGVSCFVMFLCLADNLV: the protein stability index was 3.07.

YLDPSVLSGVSCFVMFLCLADPLV: the protein stability index amounted to 2.87.

For the variant YLDPSVLSGVSCFVMFLCLADCLV, the protein stability index stood at 3.08.

For YLDPSVLSGVSCFVMFLCLADKLV, the protein stability index amounted to 3.93.

For YLDPSVLSGVSCFVMFLCLADVLV, the protein stability index stood at 2.14.

Consider YLDPSVLSGVSCFVMFLCLADWLV, for which the protein stability index worked out at 3.48.

As to YLDPSVLSGVSCFVMFLCLADHLV, the protein stability index was found to be 2.31.

Turning to YLDPSVLSGVSCFVMFLCLADILV, the protein stability index was 2.44.

For the variant YLDPSVLSGVSCFVMFLCLADLLV, the protein stability index was determined as 1.58.

In the case of YLDPSVLSGVSCFVMFLCLADQLV, the protein stability index turned out to be 3.52.

On to YLDPSVLSGVSCFVMFLCLADYHV, for which the protein stability index came to 2.74.

Take YLDPSVLSGVSCFVMFLCLADYNV: the protein stability index turned out to be 3.21.

For the variant YLDPSVLSGVSCFVMFLCLADYMV, the protein stability index was determined as 2.83.

For YLDPSVLSGVSCFVMFLCLADYWV, the protein stability index worked out at 2.07.

For YLDPSVLSGVSCFVMFLCLADYVV, the protein stability index was 3.07.

YLDPSVLSGVSCFVMFLCLADYKV: the protein stability index was found to be 3.29.

Consider YLDPSVLSGVSCFVMFLCLADYQV, for which the protein stability index is 2.69.

For YLDPSVLSGVSCFVMFLCLADYTV, the protein stability index was 3.08.

On to YLDPSVLSGVSCFVMFLCLADYCV, for which the protein stability index is 3.76.

As to YLDPSVLSGVSCFVMFLCLADYIV, the protein stability index worked out at 4.16.

As to YLDPSVLSGVSCFVMFLCLADYGV, the protein stability index is 2.59.

For the variant YLDPSVLSGVSCFVMFLCLADYEV, the protein stability index was 4.8.

YLDPSVLSGVSCFVMFLCLADYPV: the protein stability index turned out to be 2.39.

For YLDPSVLSGVSCFVMFLCLADYYV, the protein stability index was 2.27.

As for YLDPSVLSGVSCFVMFLCLADYLI, the protein stability index was found to be 3.52.

Take YLDPSVLSGVSCFVMFLCLADYLL: the protein stability index turned out to be 3.97.

As for YLDPSVLSGVSCFVMFLCLADYLS, the protein stability index was 2.53.

With YLDPSVLSGVSCFVMFLCLADYLY, the protein stability index amounted to 2.16.

Consider YLDPSVLSGVSCFVMFLCLADYLA, for which the protein stability index was 2.78.

On to YLDPSVLSGVSCFVMFLCLADYLM, for which the protein stability index worked out at 3.77.

In the case of YLDPSVLSGVSCFVMFLCLADYLC, the protein stability index turned out to be 3.6.

For YLDPSVLSGVSCFVMFLCLADYLF, the protein stability index is 2.97.

YLDPSVLSGVSCFVMFLCLTDYLV: the protein stability index came out at 4.15.

Consider YLDPSVLSGVSCFVMFLCLNDYLV, for which the protein stability index stood at 3.34.

For YLDPSVLSGVSCFVMFLCLWDYLV, the protein stability index worked out at 2.47.

Consider YLDPSVLSGVSCFVMFLCLCDYLV, for which the protein stability index amounted to 3.26.

As for YLDPSVLSGVSCFVMFLCLKDYLV, the protein stability index was 3.71.

As for YLDPSVLSGVSCFVMFLCLIDYLV, the protein stability index was found to be 1.85.

In the case of YLDPSVLSGVSCFVMFLCLYDYLV, the protein stability index worked out at 3.24.

As to YLDPSVLSGVSCFVMFLCLHDYLV, the protein stability index amounted to 2.64.

As to YLDPSVLSGVSCFVMFLCLFDYLV, the protein stability index was found to be 2.87.

Consider YLDPSVLSGVSCFVMFLCLVDYLV, for which the protein stability index worked out at 1.63.

Consider YLDPSVLSGVSCFVMFLCLAKYLV, for which the protein stability index stood at 1.14.

For YLDPSVLSGVSCFVMFLCLAQYLV, the protein stability index worked out at 2.58.

YLDPSVLSGVSCFVMFLCLAAYLV: the protein stability index came to 2.71.

Take YLDPSVLSGVSCFVMFLCLAHYLV: the protein stability index turned out to be 2.6.

Regarding YLDPSVLSGVSCFVMFLCLAIYLV, the protein stability index was 3.5.

In the case of YLDPSVLSGVSCFVMFLCLAFYLV, the protein stability index is 3.29.

On to YLDPSVLSGVSCFVMFLCLANYLV, for which the protein stability index was 2.7.

With YLDPSVLSGVSCFVMFLCLAGYLV, the protein stability index was determined as 3.14.

With YLDPSVLSGVSCFVMFLCLAYYLV, the protein stability index was found to be 1.55.

On to YLDPSVLSGVSCFVMFLCLATYLV, for which the protein stability index turned out to be 3.76.

Consider YLDPSVLSGVSCFVMFLCLAVYLV, for which the protein stability index was found to be 3.96.

On to YLDPSVLSGVSCFVMFLCYADYLV, for which the protein stability index is 1.85.

The values are drawn from the supplement of paper PMC10567573.
